Source: patent US20210317201A1 (Boehringer Ingelheim, published 2021)
Values joined by “and” are separate entries in the source; they are usually repeats but may differ in a detail not shown here. Identical values can stand only once.

T1: recombinant human IL-23 (human, UniProt P29460 23-328)
T1 sequence 1: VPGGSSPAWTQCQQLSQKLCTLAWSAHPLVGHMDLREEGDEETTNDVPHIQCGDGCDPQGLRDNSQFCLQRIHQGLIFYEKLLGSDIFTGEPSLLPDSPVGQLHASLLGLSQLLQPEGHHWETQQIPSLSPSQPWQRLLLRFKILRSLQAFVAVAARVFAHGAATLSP
T1 sequence 2: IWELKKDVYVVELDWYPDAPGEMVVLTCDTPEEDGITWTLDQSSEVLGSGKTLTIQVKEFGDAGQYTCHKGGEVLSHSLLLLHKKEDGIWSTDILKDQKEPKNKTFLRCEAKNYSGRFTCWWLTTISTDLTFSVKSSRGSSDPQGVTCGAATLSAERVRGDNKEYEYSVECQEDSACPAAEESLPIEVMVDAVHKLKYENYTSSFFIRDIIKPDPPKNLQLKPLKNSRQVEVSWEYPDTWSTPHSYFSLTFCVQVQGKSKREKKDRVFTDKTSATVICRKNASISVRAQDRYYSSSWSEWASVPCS

T2: natural human IL-23 from activated THP-1 cells (human, UniProt P29460 23-328)
T2 sequence 1: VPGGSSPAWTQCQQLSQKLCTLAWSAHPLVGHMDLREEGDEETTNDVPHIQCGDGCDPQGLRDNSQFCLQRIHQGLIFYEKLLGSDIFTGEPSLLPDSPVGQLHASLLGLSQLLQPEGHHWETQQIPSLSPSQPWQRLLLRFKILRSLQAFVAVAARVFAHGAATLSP
T2 sequence 2: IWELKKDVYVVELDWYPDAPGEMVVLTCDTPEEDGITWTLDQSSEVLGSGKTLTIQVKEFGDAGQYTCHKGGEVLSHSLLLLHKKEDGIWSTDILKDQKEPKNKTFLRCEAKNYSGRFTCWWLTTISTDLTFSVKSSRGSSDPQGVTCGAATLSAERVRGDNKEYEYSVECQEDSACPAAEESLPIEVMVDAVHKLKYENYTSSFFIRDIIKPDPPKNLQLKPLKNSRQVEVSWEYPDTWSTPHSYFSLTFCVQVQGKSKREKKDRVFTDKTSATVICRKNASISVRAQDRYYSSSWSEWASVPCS

B1: 18C4 (antibody, V domains shown)
VH: EVQLQQSGPEVVKPGASVKMSCKASGYTFTSSVIHWVKQKAGQGLEWIGYINPYNDGTKYNEKFKGKATLTSDRSSSTAYMELSSLTSEDSAVYYCTRRLDEAYWGQGTLVTVSA
VL: DIVMTQSPATLSVTPGDRVSLSCRASQSISEYLHWYQQKSHESPRLLIKYASQSISGIPSRFSGSGSGSDFTLSINSVEPEDVGVYYCQNGHSFPFTFGSGTKLEIK
notes: Mouse monoclonal antibody from hybridoma; also called 18C4vk; 18C4vh
B2: 20E8 (antibody, V domains shown)
VH: EVQLQQSGPELVKPGASVKMSCKASGYTFTSSVMHWVKQKAGQGLEWIGYINPYNDGTQYNEKFKGKATLTSDKFSSTAYMELSSLTSEDSAVYYCTRRLDEAYWGQGTLVTVSA
VL: DIVMTQSPATLSVTPGDRVSLSCRASQSISEYLHWYQQKSHESPRLLIKYASQSISGIPSRFSGSGSGSDFTLSINSVEPEDVGVYYCQNGHSFPFTFGSGTKLEIK
notes: Mouse monoclonal antibody from hybridoma; also called 20E8vk; 20E8vh
B3: 22E2 (antibody, V domains shown)
VH: EVQLQQSGPELVKPGASVKMSCKASGYTFTSSIIHWVKQRPGQGLEWIGYINPYDDVTKYNEKFKGKATLTSDKSSSTAYMELSSLTSEDSAVYYCARRWDESYWGQGTLVTVSA
VL: DIVMTQSPATLSVTPGDRVSLSCRASQSISVYLHWYQQKSPESPRLLIKYASQSISGIPSRFSGSGSGSDFTLSINSVEPEDVGVYYCQNGHSFPFTFGSGTKLEIK
notes: Mouse monoclonal antibody from hybridoma; also called 22E2vk; 22E2vh
B4: 24A5 (antibody, V domains shown)
VH: EVQLQQSGPELVKPGASVKMSCKASGYTFTTSIMHWVKQKPGQGLEWIGYINPYDDVTKYNEKFKGKATLTSDKSSSTAYMELSSLTSEDSAVYYCVRRWDEAYWGQGTLVTVSA
VL: DIVMTQSPATLSVTPGNRVSLSCRASQSISDYLHWYQQKSHESPRLLIKYASQSISGIPSRFSGSGSGSNFTLSINSVEPEDVGVYYCQNGHSFPFTFGSGTKLEIK
notes: Mouse monoclonal antibody from hybridoma; also called 24A54vk; 24A5vh
B5: 15C11 (antibody, V domains shown)
VH: EVQLQQSGPVLVKPGASVKMSCKASGYTFTDYYMNWVKQSHGKSLEWIGVIIPYNGGTSYNQKFKGKATLTVDKSSSTAYMELNSLTSEDSAVYYCARDGHRWYFDVWGTGTTVTVSS
VL: DVVMTQTPLSLPVSLGDQASISCRSSQSLVHSNGNTYLHWYLQKPGQSPKLLIYKVSNRFSGVPDRFSGSGSGTDFTLKINRVEAEDLGVYFCSQSTHVPYTFGGGTQLEIK
notes: Mouse monoclonal antibody from hybridoma; also called 15C11vk; 15C11vh
B6: 43F5 (antibody, V domains shown)
VH: EVQLQQSGPELVKPGASVKISCRASGYSFTGYYMNWVKQSPEKSLEWIGEIIPTTGGTSYNQKFKAKATLTVDKSSSTAYMQLKSLTSEDSAVYYCARESGGFYWYFDVWGTGTTVTVSS
VL: DVVMTQSPLSLPVSLGDQASISCRSSQSLVHSNGNTYLHWYLLKPGQSPKLLIYKVSNRFSGVPDRFSGSGSGTDFTLKISRVEAEDLGVYFCSQSTHVPYTFGGGTKLEIK
notes: Mouse monoclonal antibody from hybridoma; also called 43F5vk; 43F5vh
B7: 27G8 (antibody, V domains shown)
VH: QVQLQQSDAELVKPGASVKISCKVSGYTFTDHTIHWMKQRPEQGLEWIGYIYPRDGYPKFNEKFKGKATLTADKSSSTAYMQLNSLTSEDSAVYFCARRPPYYAMDYWGQGTSVAVSS
VL: DIVLTQSPASLAVSLGQRATISCRASKSVSTSGYSYIHWYQQKPGQPPKFLIYLASNLDSGVPARFSGSGSGTDFTLNIHPVEEEDAATYYCQHSRELPYTFGGGTKLEIK
notes: Mouse monoclonal antibody from hybridoma; also called 27G8vk; 27G8vh
B8: 31H9 (antibody, V domains shown)
VH: EVQLQQSGPELVKPGASVKMSCKASGYTFTRYLMHWVKQKPGQGLEWIGYINPYNDGTNYNEKFKGKATLTSDKSSSTAYMELSSLTSEDSAVYYCSLNWDYAYWGQGTLVTVSA
VL: DIVMTQSPATLSVTPGDRVSLSCRASQSISDYLHWYQQKSHESPRLLIKYASQSISGIPSRFSGSGSGSDFTLSINSVEPEDVGVYYCQNGHSFPYTFGGGTKLEIK
notes: Mouse monoclonal antibody from hybridoma; also called 31H9vk; 31H9vh
B9: 2D1 (antibody, V domains shown)
VH: QVQLKESGPGLVAPSQSLSITCTVSGFSLTTYAISWVRQSPGKGLEWLGVIWTGGGTKYNSALKSRLSISKDNSKSQVFLKMNSLQTDDTARYYCARKDYNYGGAMDYWGQGTSVTVSS
VL: DIVLTQSPGSLAVSLGQRATISCRTSESVYSYGQNFIHWYQQKPGQPPKLLIYRASNLESGIPARFSGSGSRTDFTLTMNPVEADDVATYYCQQTNEDPYTFGGGTKLEIR
notes: Mouse monoclonal antibody from hybridoma; also called 2D1vk; 2D1vh
B10: 73H10 (antibody, V domains shown)
VH: EVQLQQSGPELVKPGASVKMSCKASGYTFTRYVMHWVKQKPGQGLEWIGYINPYNDVTKYNEKFKGKATLTSDRSSSTAYMKLSSLTSEDSAVYYCARNWDVPYWGQGTLITVSA
VL: DIQMTQSPVFLSASVGETVTITCRASENIDSYLAWYQQKQGKSPQLLVFAARNLADGVPSRFSGSGSGTQYSLKINRMQSEDVARYYCQHYYSTPFTFGSGTKLEIE
notes: Mouse monoclonal antibody from hybridoma; also called 73H10Vk; 73H10VH
B11: 74H3 (antibody, V domains shown)
VH: EVQLQQSGPELVKPGASVKMSCKASGYTFTRYLMHWVKQKPGQGLEWIGYINPYNDGTKYNERFKGKATLTSDKSSSTAYMELSSLTSEDSAVYYCARNWDVPYWGQGTLVTVSA
VL: DIQMTQSPASLSASVGETVIFTCRASENIDSYLAWYQQKQGKSPQLLVYAATNLADGVPSRFSGSGSGTQYSLKINSLQSEDVARYYCLHYYSTPFTFGSGTELEIK
notes: Mouse monoclonal antibody from hybridoma; also called 74H3Vk; 74H3VH
B12: 26F7 (antibody, V domains shown)
VH: EVQLQQSGPELVKPGASVKISCKASGYTFTDYYMNWVRQSHGESLEWIGDFNHNNDVITYNPKFKGKVTLTVEKSSTTAYMELRSLSSEDSAVYYCARGLRGYYAMDYWGQGTSVTVSS
VL: DIVLTQSPASLAVSLGQRATISCRASKSVRFSDYFYMHWYQQKPGQPPKLLIYLASNLESGVPARFSGSGSGTDFTLNIHPVEEEDAATYYCQNSRELPYTFGGGTKLEIK
notes: Mouse monoclonal antibody from hybridoma; also called 26F7Vk; 26F7VH
B13: 18E5 (antibody, V domains shown)
VH: EVQLQQSGPELVKPGAAVKMSCKASGYTFTRYLIHWVKQKPGQGLEWIGYINPYNDGTKYNEKFKGKATLTSDKSSSTAYMELSSLTSEDSAVYYCTSNWDLDYWGQGTTLTVSS
VL: DIVMTQSPATLSVTPGDRVSLSCRASQSISDYLYWYQQKSHESPRLLIKFASQSISGIPSRFTGSGSGSDFTLSIDSVEPDDVGVFFCQNGHSFPFTFGGGTKLEIK
notes: Mouse monoclonal antibody from hybridoma; also called 18E5vk; 18E5vh
B14: 18D3 (antibody, V domains shown)
VH: EVQLQQSGPELVKPGASVKMSCKASGYTFTRYLIHWVKQKPGQGLEWIGYINPYNDGTKYNEKFKGKATLTSDKSSSTAYMELSSLTSEDSAVYYCTSNWDLDYWGQGTTLTVSS
VL: DIVMTQSPATLSVTPGDRVSLSCRASQSISDYLYWYQQKSHESPRLLIKFASQSISGIPSRFTGSGSGSDFTLSIDSVEPDDVGVFFCQNGHSFPFTFGGGTKLEIK
notes: Mouse monoclonal antibody from hybridoma; also called 18D3vk; 18D3vh
B15: Chimeric 22E2 (antibody, V domains shown)
VH: EVQLQQSGPELVKPGASVKMSCKASGYTFTSSIIHWVKQRPGQGLEWIGYINPYDDVTKYNEKFKGKATLTSDKSSSTAYMELSSLTSEDSAVYYCARRWDESYWGQGTLVTVSA
VL: DIVMTQSPATLSVTPGDRVSLSCRASQSISVYLHWYQQKSPESPRLLIKYASQSISGIPSRFSGSGSGSDFTLSINSVEPEDVGVYYCQNGHSFPFTFGSGTKLEIK
B16: Chimeric 24A5 (antibody, V domains shown)
VH: EVQLQQSGPELVKPGASVKMSCKASGYTFTTSIMHWVKQKPGQGLEWIGYINPYDDVTKYNEKFKGKATLTSDKSSSTAYMELSSLTSEDSAVYYCVRRWDEAYWGQGTLVTVSA
VL: DIVMTQSPATLSVTPGNRVSLSCRASQSISDYLHWYQQKSHESPRLLIKYASQSISGIPSRFSGSGSGSNFTLSINSVEPEDVGVYYCQNGHSFPFTFGSGTKLEIK

Legend:
[1] = target: T1, recombinant human IL-23; assay: cell-based or functional assay
[2] = target: T1, recombinant human IL-23; assay: BLI, Fortebio Octet; hybridoma-derived antibody
Method: Kinetics and binding affinities were measured using the Fortebio OCTET® (Fortebio, Menlo Park, Calif.) using material generated from hybridoma following single column purification.

[3] = target: T2, natural human IL-23 from activated …; assay: cell-based or functional assay

Binder | IC50, IL-23 stimulated IL-17 production from mouse splenocytes [1] | Kd [2] [nM] | koff [2] [s⁻¹] | kon [2] [M⁻¹ s⁻¹] | IC50, IL-23 stimulated IL-17 production from mouse splenocytes [3]
B1 | 0.471 nM | 0.00557 | 2.14e-06 | 384000 | 
B2 |  | 0.638 | 0.000269 | 421000 | 0.438 nM and 0.561 nM
B3 | 0.061 nM and 0.13 nM | 1.02 | 0.000353 | 346000 | 
B4 | 0.022 nM and 0.037 nM | 0.0226 | 4.57e-06 | 202000 | 0.085 nM and 0.031 nM
B5 | 0.126 nM | 0.026 | 1.07e-05 | 411000 | 0.232 nM
B6 |  | 0.0346 | 5.96e-06 | 172000 | 8 nM
B7 | 0.235 nM | 0.0272 | 4.26e-06 | 157000 | 5 nM
B8 | 0.96 nM | 0.0115 | 3.45e-06 | 299000 | 2 nM
B9 |  | < 0.001 | < 1e-06 |  | 2.34 nM and 1.91 nM and 1.6 nM
B10 | 1.41 nM | 0.0992 | 5.24e-06 | 52900 | 
B11 | 1.35 nM | 0.0683 | 2.09e-06 | 30600 | 
B12 | 0.027 nM | 0.0281 | 1.34e-05 | 476000 | 
B13 |  | 0.00793 | 2.61e-06 | 329000 | 0.009 nM and 0.013 nM
B14 | 0.234 nM | 0.00678 | 2.16e-06 | 319000 | 
B15 | 0.1 nM |  |  |  | 
B16 | 0.404 nM |  |  |  | 0.095 nM and 0.102 nM
